Measured values taken from the Human Domainome abundance scans (Beltran et al. 2025).

B1: DnaJ homolog subfamily C member 2, residues 451 to 503; numbered along this chain, Q99543 (parent)
chain: SKNWSEDDLQLLIKAVNLFPAGTNSRWEVIANYMNIHSSSGVKRTAKDVIGKA

Variants of: B1
Assay: abundance fitness (aPCA) (normalised: wild type 0, dead -1); higher = more abundant; growth selection in yeast, the domain comes from the species named
Conditions: Homo sapiens

Abundance fitness, by site and new letter:
I13: E -0.006 | F 0.039 | Y -0.038 | C -0.147 | W 0.058 | P -0.537 | V -0.033 | Q 0.131 | L 0.085 | A 0.14 | G 0.099 | H 0.042 | N -0.097 | K 0.053 | M 0.021 | T -0.141 | D 0.142 | S 0.073 | R 0.086
G22: C 0.015 | D -0.016 | M -0.371 | L -0.484 | H -0.166 | K -0.146 | S 0.002 | Y -0.267 | R -0.098 | I -0.194 | A -0.064 | P -0.217 | E 0.011 | W -0.293 | F -0.489 | V -0.28 | Q -0.293 | T -0.065
T23: M -0.221 | H -0.147 | A -0.267 | C -0.353 | V -0.302 | R -0.649 | D -0.165 | Y -0.201 | S -0.276 | L -0.221 | G -0.262 | E -0.325 | P -0.539 | Q -0.162 | K -0.587 | F 0.038 | I -0.226
Q10: T -0.319 | M -0.34 | Y -0.207 | G -0.141 | W -0.706 | N -0.083 | P -0.802 | H -0.254 | S -0.163 | D -0.217 | I -0.212 | E -0.054 | F -0.483 | C -0.577 | K -0.107 | L -0.141 | A -0.189 | V -0.206
D7: H -0.257 | V -0.054 | Q 0.063 | K -0.04 | G -0.015 | M 0.037 | A 0.106 | N -0.114 | Y -0.369 | I -0.19 | E 0.086 | T -0.005 | C -0.889 | F -0.308 | L -0.047 | R 0.015 | W -0.437 | P -0.045 | S 0.042
N17: I -0.384 | Q -0.157 | V -0.161 | Y -0.194 | T -0.016 | K -0.043 | P -0.875 | S -0.061 | H -0.158 | W -0.348 | F -0.353 | L -0.216 | A -0.085 | G -0.082 | R -0.036 | D 0.12
F19: V -0.102 | Q -0.86 | S -0.622 | R -0.91 | Y -0.178 | K -0.961 | M -0.572 | T -0.456 | H -0.093 | P -1.11 | E -1.06 | W -0.215 | D -0.948 | A -0.536 | L -0.602 | C -0.586 | I -0.29 | N -0.803
D8: P -1.06 | E -0.081 | C -0.732 | N -0.757 | R -0.453 | I -0.534 | Y -0.712 | V -0.937 | T -0.186 | Q -0.559 | M -0.844 | A -0.977 | S -0.615 | K -0.422
L11: R -0.536 | P -0.891 | M -0.229 | K -0.747 | S -0.582 | A -0.712 | G -0.819 | D -0.802 | V -0.37 | Y -0.579 | Q -0.632 | I 0.007 | C -0.403 | F -0.382
L12: W -0.177 | G -0.779 | S -0.802 | V -0.511 | C -0.667 | D -0.97 | P -0.719 | M -0.223 | E -0.952 | I -0.456 | Y -0.168 | K -0.97 | T -0.907 | Q -0.894 | A -0.617 | N -0.875 | R -0.796
N24: C -0.166 | A 0.14 | D 0.008 | E 0.07 | F -0.101
A21: E 0.066 | D -0.039 | C -0.117 | M 0.005 | P -0.094 | Q 0.049 | I -0.185 | W -0.244 | H 0.083 | V -0.142 | G -0.122 | S -0.029 | N -0.217 | K -0.018 | F -0.096 | T -0.016 | R -0.054 | L -0.079 | Y -0.265
S5: M -0.514 | D -0.676 | T -0.014 | C -0.286 | V -0.676 | Y -0.715 | F -0.654 | A -0.747
L9: D 0.156 | H -0.071 | Q 0.145 | Y 0.022 | E 0.03 | V -0.082 | F 0.065 | G -0.143 | R -0.054 | N 0.184 | I -0.014 | C -0.052 | A -0.014 | P -0.724 | K -0.043 | W -0.058 | M 0.036
A15: N -0.984 | P -0.724 | E -0.965 | R -0.994 | D -0.777 | F -0.847 | V -0.511 | S -0.214 | Q -1.03 | W -0.682 | H -0.754 | L -0.61 | I -0.982 | C -0.279 | M -0.83 | Y -0.688 | G -0.182 | T -0.519
W4: E -0.825 | R -0.777 | M -0.06 | K -0.758 | F -0.104 | V -0.908 | S -0.599 | I -0.465 | T -0.621 | Y -0.341 | Q -0.704 | P -0.828 | L -0.229
L18: A 0.043 | F -0.219 | Q -0.38 | V -0.108 | Y -0.173 | W -0.547 | C -0.222 | I -0.073 | R -0.145 | H -0.272 | E -0.305 | M 0.065 | K -0.268 | T -0.054 | G -0.53 | P -0.807 | D -0.332 | S -0.273
E6: K -0.679 | C 0.051 | F 0.038 | Q -0.055 | R -0.543 | S 0.074 | G -0.155 | L -0.404 | V -0.121 | M -0.366 | T -0.175 | D -0.154 | Y -0.186 | H -0.615 | P 0.107
P20: D -0.13 | C -0.555 | F -0.984 | E -0.358 | H -0.228 | A -0.571 | T -0.607 | V -0.772 | Q -0.328 | M -0.955 | R -0.392 | W -0.975 | S -0.411 | N -0.292 | G -0.103 | I -0.961
V16: S -0.054 | K 0.18 | P -1.04 | C -0.186 | Q 0.168 | W -0.268 | Y -0.028 | N -0.071 | R 0.002 | I 0.08 | H -0.25 | E -0.042 | M 0.065 | A -0.164 | D -0.371 | L -0.067 | G -0.266
K14: P -0.971 | C -0.274 | Q -0.308 | N -0.274 | G -0.243 | H -0.05 | D -0.054 | Y -0.207 | E -0.096 | F -0.006 | M -0.226 | I -0.296 | V -0.196 | A -0.026 | L -0.317 | W -0.602 | S -0.225 | R -0.088
